Experimental data from patent publication US7067474B1, “Agents for treating human illnesses based on β-catenin, and the production and use thereof” (Max-Delbruck-Centrum fur Molekulare Medizin, priority 1998, dated 2006).
Changes are numbered by the printed parent chain.

B1: human β-catenin (Leu218-Leu781) mutant Arg 342 to alanine, Gal-4 activation domain fusion (other, not shown: large carriers; small tags and cut ends)
chain: LHNLSHHREGLLAIFKSGGIPALVKMLGSPVDSVLFYAITTLHNLLLHQEGAKMAVRLAGGLQKMVALLNKTNVKFLAITTDCLQILAYGNQESKLIILASGGPQALVNIMRTYTYEKLLWTTSAVLKVLSVCSSNKPAIVEAGGMQALGLHLTDPSQRLVQNCLWTLRNLSDAATKQEGMEGLLGTLVQLLGSDDINVVTCAAGILSNLTCNNYKNKMMVCQVGGIEALVRTVLRAGDREDITEPAICALRHLTSRHQEAEMAQNAVRLHYGLPVVVKLLHPPSHWPLIKATVGLIRNLALCPANHAPLREQGAIPRLVQLLVRAHQDTQRRTSMGGTQQQFVEGVRMEEIVEGCTGALHILARDVHNRIVIRGLNTIPLFVQLLYSPIENIQRVAAGVLCELAQDKEAAEAIEAEGATAPLTELLHSRNEGVATYAAAVLFRMSEDKPQDYKKRLSVELTSSLFRTEPMAWNETADLGLDIGAQGEPLGYRQDDPSYRSFHSGGYGQDALGMDPMMEHEMGGHHPGADYPVDGLPDLGHAQDLMDGLPPGDSNQLAWFDTDL
B2: human β-catenin (Leu218-Leu781) mutant His 260 to alanine, Gal-4 activation domain fusion (other, not shown: large carriers; small tags and cut ends)
chain: B1 chain with H43A, A125R
B3: human β-catenin (Leu218-Leu781) mutant Lys 345 to alanine, Gal-4 activation domain fusion (other, not shown: large carriers; small tags and cut ends)
chain: B1 chain with A125R, K128A
B4: human β-catenin (Leu218-Leu781) mutant Lys 354 to alanine, Gal-4 activation domain fusion (other, not shown: large carriers; small tags and cut ends)
chain: B1 chain with A125R, K137A
B5: human β-catenin (Leu218-Leu781) mutant Arg 469 to alanine, Gal-4 activation domain fusion (other, not shown: large carriers; small tags and cut ends)
chain: B1 chain with A125R, R252A

target: conductin amino acids Ala342-Arg465 fused to Lex-A (vector BTM 116) (UniProt P0A7C2); test: yeast 2-hybrid, β-galactosidase reporter; percent of wild type β-catenin

**Q.** B1 was tested. Which share of the interaction with wild type β-catenin in percent did it give?
**A.** Its share of the interaction with wild type β-catenin in percent is 20%.

**Q.** B2 was tested. Which share of the interaction with wild type β-catenin in percent did it give?
**A.** The share of the interaction with wild type β-catenin in percent was 10%.

**Q.** B3 was tested. Which share of the interaction with wild type β-catenin in percent did it give?
**A.** The share of the interaction with wild type β-catenin in percent was 22%.

**Q.** For B4, which share of the interaction with wild type β-catenin in percent is on record?
**A.** Its share of the interaction with wild type β-catenin in percent is 43%.

target: human APC amino acids His1012-Glu1215 (APC 15 amino acid repeats) fused to Lex-A (vector BTM 116) (human); test: as above

**Q.** B2 was tested. Which share of the interaction with wild type β-catenin in percent did it give?
**A.** The share of the interaction with wild type β-catenin in percent was 100%.

**Q.** Which share of the interaction with wild type β-catenin in percent does the source give for B4 here?
**A.** The share of the interaction with wild type β-catenin in percent was 54%.

target: human APC amino acids Ser1259-Asp1400 (APC 20 amino acid repeats) fused to Lex-A (vector BTM 116) (human); test: as above

**Q.** How did the share of the interaction with wild type β-catenin in percent turn out when B1 was run?
**A.** The share of the interaction with wild type β-catenin in percent was 29%.

**Q.** With B2 as the binder, how does the share of the interaction with wild type β-catenin in percent read?
**A.** Its share of the interaction with wild type β-catenin in percent is 40%.

target: T1, LEF-1 amino acids 1-99 fused to Lex-A (vector BTM 116) (UniProt P0A7C2 1-202; P27782 1-99); test: as above
T1 construct: Order of the fusion follows the vector; also called LEF-1/TCF-4
Method: (§1) 4. Preparation and testing of mutants of β-catenin modulating the interaction with LEF-1, APC, conductin or E-cadherin The mutagenesis of β-catenin in the armadillo repeats 3–8 was carried out by means of the "mutagenesis kit" of the company Clontech according to the producer's record and the mutants were checked by sequencing (FIG. 5). In all mutants the original amino acid was substituted by alanine. For analyzing the interactions the cDNA of human β-catenin (armadillo repeat 3 up to the C-terminal end of the protein) coding for the amino acids Leu218–Leu7 µl or its mutants was cloned into the fusion vector for the activation domain of Gal-4 (pGAD424, Clontech). The cDNA for the binding domains of the interaction partners was cloned into the Lex-A fusion vector BTM 116. To this end, the cDNA of LEF-1 for the amino acids 1–99, conductin for the amino acids Ala342–ARG465; of human APC for the amino acids His1012–Glu1215 (APC 15 amino acid repeats) and for the amino acids Ser1259Asp 1400 (APC 20 amino acid repeats) and E-cadherin for the amino acids Gin773–Asp884 (cytoplasmatic domain) were amplified with the respective primers PCR. The interaction of the Lex-A hybrids with β-catenin and its mutants was quantified by means of the β-galactosidase reporter activity in the yeast 2-hybrid system (report: "Matchmaker". Clontech) (Tab. 2 and FIG. 6).

**Q.** With B2 as the binder, how does the “share of the interaction with wild type β-catenin in percent” value (“share of the interaction … in percent” below) read?
**A.** The value was 50%.

**Q.** B3 was tested. Which “share of the interaction … in percent” value did it give?
**A.** The value was 38%.

**Q.** For B5, which “share of the interaction … in percent” value is on record?
**A.** Its value is 17%.

**Q.** With B4 as the binder, how does the “share of the interaction … in percent” value read?
**A.** The value was 38%.

target: E-cadherin amino acids Gln773-Asp884 (cytoplasmatic domain) fused to Lex-A (vector BTM 116) (UniProt P0A7C2 1-202; P09803 773-884); test: as above
Method: as §1

**Q.** Which “share of the interaction … in percent” value does the source give for B1 here?
**A.** Its value is 41%.

**Q.** B2 was tested. Which “share of the interaction … in percent” value did it give?
**A.** Its value is 100%.

**Q.** B3 was tested. Which “share of the interaction … in percent” value did it give?
**A.** Its value is 27%.

**Q.** With B5 as the binder, how does the “share of the interaction … in percent” value read?
**A.** The value was 50%.

**Q.** How did the “share of the interaction … in percent” value turn out when B4 was run?
**A.** Its value is 40%.
